The target in the assay is Kv7.2 wt (wild-type Kv7.2 channel subunit), tagged with EGFP or with mKate2 (human, UniProt O43526-1 1-872). The assay is described as follows: FRET or BRET. On the technique in general: Bioluminescence resonance energy transfer reports proximity on the nanometre scale.

B1: Kv7.2mut-EGFP (Kv7.2 with in-frame deletion of histidine 260) (natural protein)
chain: MVQKSRNGGVYPGPSGEKKLKVGFVGLDPGAPDSTRDGALLIAGSEAPKRGSILSKPRAGGAGAGKPPKRNAFYRKLQNFLYNVLERPRGWAFIYHAYVFLLVFSCLVLSVFSTIKEYEKSSEGALYILEIVTIVVFGVEYFVRIWAAGCCCRYRGWRGRLKFARKPFCVIDIMVLIASIAVLAAGSQGNVFATSALRSLRFLQILRMIRMDRRGGTWKLLGSVVYAHSKELVTAWYIGFLCLILASFLVYLAEKGENDFDTYADALWWGLITLTTIGYGDKYPQTWNGRLLAATFTLIGVSFFALPAGILGSGFALKVQEQHRQKHFEKRRNPAAGLIQSAWRFYATNLSRTDLHSTWQYYERTVTVPMYSSQTQTYGASRLIPPLNQLELLRNLKSKSGLAFRKDPPPEPSPSKGSPCRGPLCGCCPGRSSQKVSLKDRVFSSPRGVAAKGKGSPQAQTVRRSPSADQSLEDSPSKVPKSWSFGDRSRARQAFRIKGAASRQNSEEASLPGEDIVDDKSCPCEFVTEDLTPGLKVSIRAVCVMRFLVSKRKFKESLRPYDVMDVIEQYSAGHLDMLSRIKSLQSRVDQIVGRGPAITDKDRTKGPAEAELPEDPSMMGRLGKVEKQVLSMEKKLDFLVNIYMQRMGIPPTETEAYFGAKEPEPAPPYHSPEDSREHVDRHGCIVKIVRSSSSTGQKNFSAPPAAPPVQCPPSTSWQPQSHPRQGHGTSPVGDHGSLVRIPPPPAHERSLSAYGGGNRASMEFLRQEDTPGCRPPEGNLRDSDTSISIPSVDHEELERSFSGFSISQSKENLDALNSCYAAVAPCAKVRPYIAEGESDTDSDLCTPCGPPPRSATGEGPFGDVGWAGPRK
In the case of B1, the “increase of EGFP intensity after photobleaching mKate2 (FRET)” value stood at 12.1%.

The values are drawn from article PMC9490039 (iScience, 2022).
